Measured values reported in paper PMC8618960, “Functionalized Protein Nanotubes Based on the Bacteriophage vB_KleM-RaK2 Tail Sheath Protein” (Nanomaterials, 2021).

Substrate: CC(=O)Nc1ccn([C@H]2C[C@H](O)[C@@H](CO)O2)c(=O)n1
Experiment: purified protein
Type: biochemical, Escherichia coli
Details: 10 mM Tris-HCl pH 8.0, 22 °C, free enzyme

B1: YqfB (free wild-type YqfB, amidohydrolase YqfB) (Escherichia coli K-12) (protein)
chain: MQPNDITFFQRFQDDILAGRKTITIRDESESHFKTGDVLRVGRFEDDGYFCTIEVTATSTVTLDTLTEKHAEQENMTLTELKKVIADIYPGQTQFYVIEFKCL
notes: free wild-type YqfB
Km: (4.9 ± 0.04) × 10^−4 M
kcat: 113 ± 1 s⁻¹
kcat/Km: 230000 M⁻¹ s⁻¹
